Data on 1 substance can be found in paper PMC5800367.

For experiment [1], the target named is Serum purified human C5a (Homo sapiens) (UniProt P01031). Put plainly: SPR.
Experiment [2] addresses Serum purified Cynomolgus C5a (Macaca fascicularis). Put plainly: SPR. A general note: Surface plasmon resonance follows binding to a sensor surface in real time, without labels.
The target in experiment [3] is Recombinant human C5a (Homo sapiens) (UniProt P01031). Put plainly: SPR.
Experiment [4] addresses Recombinant Cynomolgus C5adesArg (Macaca fascicularis). Briefly: SPR.
Experiment [5] deals with Serum purified human C5 (Homo sapiens) (UniProt P01031). Briefly: DELFIA biochemical competition assay.
Experiment [6] addresses Recombinant human C5a (Homo sapiens) (UniProt P01031). Briefly: DELFIA biochemical competition assay.
Experiment [7] has the same target. Put plainly: kinetic exclusion assay.

As to MEDI7814 (antibody), the Kd in experiment [1] was 8 pM; in experiment [3], 14 pM; in experiment [4] it was 10 pM; in experiment [7], 4 pM. The off-rate constant (koff) was determined as 0.000165 s⁻¹ in experiment [1], 0.000154 s⁻¹ in experiment [2], 0.000251 s⁻¹ in experiment [3] and 0.000144 s⁻¹ in experiment [4]. Also, the kon in experiment [1] was determined as 2.18e+07 M⁻¹ s⁻¹; in experiment [2] it was 8.08e+06 M⁻¹ s⁻¹; in experiment [3] it was 1.74e+07 M⁻¹ s⁻¹; in experiment [4], 1.51e+07 M⁻¹ s⁻¹. The IC50 in experiment [5] was 600 pM; in experiment [6], 300 pM.

A word on the Kd: it is a measure of binding affinity in units of concentration. As usually defined, the koff is the first-order rate constant of dissociation. Broadly, the kon is the rate constant with which the complex forms. As usually defined, the IC50 is the point on the concentration scale where inhibition reaches its midpoint.
